# According to patent publication US20180155451A1 (published 2018):
# T1: FcγRIIa R (human, UniProt P12318 34-217)
# T1 construct: extracellular domain; Soluble extracellular domain with C-terminal His tag, expressed in FreeStyle293 cells; also called FcgRIIa R; FcγRIIa type R; not shown: His tag attached to the C terminus
# T1 sequence (looked up): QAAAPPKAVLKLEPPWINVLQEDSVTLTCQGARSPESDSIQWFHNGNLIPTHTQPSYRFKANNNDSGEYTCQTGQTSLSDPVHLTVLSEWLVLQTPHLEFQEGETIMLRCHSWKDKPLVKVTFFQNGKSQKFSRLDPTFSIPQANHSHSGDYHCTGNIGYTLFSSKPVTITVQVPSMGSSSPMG
# B1: GpH7-B3 variant T335_04F/GpL16-k0 (antibody, human IgG1, kappa)
# heavy: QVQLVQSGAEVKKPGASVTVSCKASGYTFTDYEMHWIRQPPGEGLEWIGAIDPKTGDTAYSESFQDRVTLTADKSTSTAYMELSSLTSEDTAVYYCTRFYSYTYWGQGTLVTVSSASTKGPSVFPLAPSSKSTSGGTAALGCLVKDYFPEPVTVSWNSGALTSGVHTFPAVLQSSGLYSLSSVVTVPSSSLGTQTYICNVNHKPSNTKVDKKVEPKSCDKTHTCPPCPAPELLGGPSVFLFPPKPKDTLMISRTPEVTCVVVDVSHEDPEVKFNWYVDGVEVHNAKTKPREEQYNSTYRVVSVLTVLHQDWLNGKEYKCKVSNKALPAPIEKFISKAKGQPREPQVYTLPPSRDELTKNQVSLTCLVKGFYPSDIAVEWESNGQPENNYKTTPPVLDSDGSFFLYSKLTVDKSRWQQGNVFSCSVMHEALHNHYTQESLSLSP
# light: DIVMTQSPLSLPVTPGEPASISCQASESLVHSNRNTYLHWYLQKPGQSPQLLIYKVSNRFSGVPDRFSGSGSGTDFTLKISRVEAEDVGVYYCSQNTHVPPTFGQGTKVEIERTVAAPSVFIFPPSDEQLKSGTASVVCLLNNFYPREAKVQWKVDNALQSGNSQESVTEQDSKDSTYSLSSTLTLSKADYEKHKVYACEVTHQGLSSPVTKSFNRGEC
# notes: homodimerized; mutation in both H chains; also called Ho Ab
# B2: GpH7-B3 variant T335_06M/GpL16-k0 (antibody, human IgG1, kappa)
# heavy: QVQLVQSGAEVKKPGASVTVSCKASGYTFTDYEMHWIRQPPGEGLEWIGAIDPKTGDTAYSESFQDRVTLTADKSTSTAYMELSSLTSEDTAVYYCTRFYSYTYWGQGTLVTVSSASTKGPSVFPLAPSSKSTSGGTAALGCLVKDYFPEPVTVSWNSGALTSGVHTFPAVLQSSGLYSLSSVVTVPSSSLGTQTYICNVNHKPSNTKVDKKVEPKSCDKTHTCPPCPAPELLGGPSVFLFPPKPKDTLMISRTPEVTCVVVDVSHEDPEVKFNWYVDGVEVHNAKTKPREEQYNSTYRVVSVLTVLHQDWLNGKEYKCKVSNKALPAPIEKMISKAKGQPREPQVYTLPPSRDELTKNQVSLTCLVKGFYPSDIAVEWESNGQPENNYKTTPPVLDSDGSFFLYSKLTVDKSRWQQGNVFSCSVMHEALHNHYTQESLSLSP
# light: B1 light
# notes: as for B1
# B3: GpH7-B3 variant V266_06M/GpL16-k0 (antibody, human IgG1, kappa)
# heavy: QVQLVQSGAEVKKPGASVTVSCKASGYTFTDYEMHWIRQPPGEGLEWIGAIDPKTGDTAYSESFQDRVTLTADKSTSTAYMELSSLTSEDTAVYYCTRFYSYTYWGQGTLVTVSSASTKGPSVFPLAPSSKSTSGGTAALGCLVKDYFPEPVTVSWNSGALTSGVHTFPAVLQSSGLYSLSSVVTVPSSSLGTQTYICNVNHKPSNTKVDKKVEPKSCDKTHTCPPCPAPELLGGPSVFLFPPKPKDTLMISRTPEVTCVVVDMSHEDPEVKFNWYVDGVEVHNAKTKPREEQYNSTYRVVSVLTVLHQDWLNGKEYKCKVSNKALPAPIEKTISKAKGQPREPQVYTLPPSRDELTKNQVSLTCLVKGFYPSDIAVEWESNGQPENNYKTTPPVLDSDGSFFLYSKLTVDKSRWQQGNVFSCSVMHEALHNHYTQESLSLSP
# light: B1 light
# notes: as for B1
# B4: GpH7-B3 variant Y296_20W/GpL16-k0 (antibody, human IgG1, kappa)
# heavy: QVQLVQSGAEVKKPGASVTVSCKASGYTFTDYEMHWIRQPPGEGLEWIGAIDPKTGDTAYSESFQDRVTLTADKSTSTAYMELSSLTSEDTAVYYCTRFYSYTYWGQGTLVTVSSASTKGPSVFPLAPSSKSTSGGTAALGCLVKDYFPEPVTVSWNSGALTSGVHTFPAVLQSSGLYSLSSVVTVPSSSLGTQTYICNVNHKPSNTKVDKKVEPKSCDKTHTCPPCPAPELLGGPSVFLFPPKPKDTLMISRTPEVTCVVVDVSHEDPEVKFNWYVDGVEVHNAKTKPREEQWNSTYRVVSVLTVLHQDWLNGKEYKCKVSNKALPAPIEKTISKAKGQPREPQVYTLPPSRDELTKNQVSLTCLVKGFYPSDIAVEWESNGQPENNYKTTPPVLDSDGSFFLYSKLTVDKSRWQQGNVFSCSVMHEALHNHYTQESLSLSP
# light: B1 light
# notes: as for B1
# B5: GpH7-B3 variant T335_20W/GpL16-k0 (antibody, human IgG1, kappa)
# heavy: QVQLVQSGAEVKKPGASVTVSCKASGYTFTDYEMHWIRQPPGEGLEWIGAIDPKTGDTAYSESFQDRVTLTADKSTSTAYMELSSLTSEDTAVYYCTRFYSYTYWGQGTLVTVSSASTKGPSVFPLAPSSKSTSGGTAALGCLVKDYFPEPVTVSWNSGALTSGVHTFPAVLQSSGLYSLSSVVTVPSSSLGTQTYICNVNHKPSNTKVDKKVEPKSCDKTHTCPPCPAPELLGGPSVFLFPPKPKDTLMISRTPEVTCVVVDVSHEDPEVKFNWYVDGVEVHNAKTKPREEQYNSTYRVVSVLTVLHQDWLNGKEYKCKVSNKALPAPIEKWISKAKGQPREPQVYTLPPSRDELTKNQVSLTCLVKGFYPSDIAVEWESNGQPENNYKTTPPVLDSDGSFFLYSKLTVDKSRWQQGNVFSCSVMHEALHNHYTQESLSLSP
# light: B1 light
# notes: as for B1
# B6: GpH7-B3 variant T335_09D/GpL16-k0 (antibody, human IgG1, kappa)
# heavy: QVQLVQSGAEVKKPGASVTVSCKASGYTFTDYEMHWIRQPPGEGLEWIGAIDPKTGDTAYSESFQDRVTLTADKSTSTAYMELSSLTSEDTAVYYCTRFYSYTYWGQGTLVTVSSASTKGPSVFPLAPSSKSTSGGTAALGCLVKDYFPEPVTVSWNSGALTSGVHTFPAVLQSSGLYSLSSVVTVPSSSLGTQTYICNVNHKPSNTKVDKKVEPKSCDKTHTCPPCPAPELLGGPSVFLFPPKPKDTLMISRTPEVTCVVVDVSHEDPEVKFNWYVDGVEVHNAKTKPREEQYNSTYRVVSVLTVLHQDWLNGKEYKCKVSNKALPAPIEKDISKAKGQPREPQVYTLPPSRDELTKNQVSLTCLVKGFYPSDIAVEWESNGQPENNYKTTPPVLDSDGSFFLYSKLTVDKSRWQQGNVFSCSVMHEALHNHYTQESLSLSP
# light: B1 light
# notes: as for B1
# B7: GpH7-B3 variant Y300_04F/GpL16-k0 (antibody, human IgG1, kappa)
# heavy: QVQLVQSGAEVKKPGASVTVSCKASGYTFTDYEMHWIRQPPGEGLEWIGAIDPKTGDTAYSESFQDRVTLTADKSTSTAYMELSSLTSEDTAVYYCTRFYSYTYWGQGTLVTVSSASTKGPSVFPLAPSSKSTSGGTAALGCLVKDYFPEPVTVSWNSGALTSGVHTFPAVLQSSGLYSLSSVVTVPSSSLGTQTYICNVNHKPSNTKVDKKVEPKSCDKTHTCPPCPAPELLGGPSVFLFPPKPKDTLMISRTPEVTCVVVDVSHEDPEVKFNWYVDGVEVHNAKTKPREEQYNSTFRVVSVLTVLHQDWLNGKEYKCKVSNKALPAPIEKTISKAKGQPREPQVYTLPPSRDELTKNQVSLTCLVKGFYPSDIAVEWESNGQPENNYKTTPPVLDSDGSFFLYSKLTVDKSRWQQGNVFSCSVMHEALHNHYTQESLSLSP
# light: B1 light
# notes: as for B1
# B8: GpH7-B3 variant T335_18N/GpL16-k0 (antibody, human IgG1, kappa)
# heavy: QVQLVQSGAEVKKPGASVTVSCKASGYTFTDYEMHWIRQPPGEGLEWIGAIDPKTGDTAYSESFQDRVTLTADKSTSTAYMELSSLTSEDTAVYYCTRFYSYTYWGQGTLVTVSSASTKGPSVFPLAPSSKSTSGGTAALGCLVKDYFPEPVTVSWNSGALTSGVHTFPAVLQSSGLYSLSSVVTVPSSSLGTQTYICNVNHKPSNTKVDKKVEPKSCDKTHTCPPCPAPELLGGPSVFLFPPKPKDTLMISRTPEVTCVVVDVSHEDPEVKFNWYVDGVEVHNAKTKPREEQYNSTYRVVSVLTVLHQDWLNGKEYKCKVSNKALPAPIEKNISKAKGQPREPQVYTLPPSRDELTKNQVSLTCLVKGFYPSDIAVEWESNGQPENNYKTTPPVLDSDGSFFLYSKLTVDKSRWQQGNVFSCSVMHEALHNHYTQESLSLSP
# light: B1 light
# notes: as for B1
# B9: GpH7-B3 variant T335_16H/GpL16-k0 (antibody, human IgG1, kappa)
# heavy: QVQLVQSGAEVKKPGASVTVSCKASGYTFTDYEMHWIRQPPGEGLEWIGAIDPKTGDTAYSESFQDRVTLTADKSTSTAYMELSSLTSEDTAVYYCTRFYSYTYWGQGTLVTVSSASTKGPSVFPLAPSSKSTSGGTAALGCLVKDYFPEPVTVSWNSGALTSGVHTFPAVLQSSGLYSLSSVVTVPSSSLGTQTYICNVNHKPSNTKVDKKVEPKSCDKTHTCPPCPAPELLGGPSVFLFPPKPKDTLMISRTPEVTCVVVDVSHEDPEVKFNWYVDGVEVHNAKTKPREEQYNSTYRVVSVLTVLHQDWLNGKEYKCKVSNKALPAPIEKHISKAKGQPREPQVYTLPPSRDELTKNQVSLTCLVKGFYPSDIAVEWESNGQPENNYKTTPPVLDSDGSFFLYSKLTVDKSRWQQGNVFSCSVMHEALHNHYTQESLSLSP
# light: B1 light
# notes: as for B1
# B10: GpH7-B3 variant T335_19Q/GpL16-k0 (antibody, human IgG1, kappa)
# heavy: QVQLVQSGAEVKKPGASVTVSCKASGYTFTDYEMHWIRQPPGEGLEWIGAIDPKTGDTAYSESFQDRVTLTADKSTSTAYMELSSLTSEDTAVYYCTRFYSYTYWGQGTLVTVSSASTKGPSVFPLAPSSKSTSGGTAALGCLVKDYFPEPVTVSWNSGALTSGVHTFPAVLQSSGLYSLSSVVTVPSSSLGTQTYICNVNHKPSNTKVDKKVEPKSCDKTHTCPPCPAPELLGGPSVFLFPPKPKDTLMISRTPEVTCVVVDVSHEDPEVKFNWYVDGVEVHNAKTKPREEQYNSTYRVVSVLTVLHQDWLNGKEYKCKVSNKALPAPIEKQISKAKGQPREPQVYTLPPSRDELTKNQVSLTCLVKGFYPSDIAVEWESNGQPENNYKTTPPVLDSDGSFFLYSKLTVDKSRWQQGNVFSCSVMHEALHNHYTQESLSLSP
# light: B1 light
# notes: as for B1
# B11: GpH7-B3 variant T335_08L/GpL16-k0 (antibody, human IgG1, kappa)
# heavy: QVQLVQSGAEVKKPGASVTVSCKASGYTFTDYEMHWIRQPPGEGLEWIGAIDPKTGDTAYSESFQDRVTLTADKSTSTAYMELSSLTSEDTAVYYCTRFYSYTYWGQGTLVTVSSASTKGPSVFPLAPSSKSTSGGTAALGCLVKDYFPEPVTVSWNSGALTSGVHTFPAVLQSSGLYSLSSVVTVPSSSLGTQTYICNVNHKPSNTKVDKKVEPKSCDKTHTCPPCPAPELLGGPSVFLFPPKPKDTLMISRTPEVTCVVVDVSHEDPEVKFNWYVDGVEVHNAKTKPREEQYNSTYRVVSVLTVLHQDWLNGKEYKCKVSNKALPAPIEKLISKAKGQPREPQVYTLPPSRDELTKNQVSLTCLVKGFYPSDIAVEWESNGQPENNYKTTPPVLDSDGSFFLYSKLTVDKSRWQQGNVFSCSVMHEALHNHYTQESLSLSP
# light: B1 light
# notes: as for B1
# B12: GpH7-A5/GpH7-B3 variant T335_15Y/GpL16-k0 (antibody, human IgG1, kappa)
# heavy 1: not shown
# heavy 2: not shown
# light: B1 light
# notes: heterodimerized; mutation in one H chain only; also called He Ab
# B13: GpH7-A5/GpH7-B3 variant S239_09D/GpL16-k0 (antibody, human IgG1, kappa)
# heavy 1: not shown
# heavy 2: not shown
# light: B1 light
# notes: as for B12
# B14: GpH7-A5/GpH7-B3 variant I332_04F/GpL16-k0 (antibody, human IgG1, kappa)
# heavy 1: not shown
# heavy 2: not shown
# light: B1 light
# notes: as for B12
# B15: GpH7-A5/GpH7-B3 variant S337_14T/GpL16-k0 (antibody, human IgG1, kappa)
# heavy 1: not shown
# heavy 2: not shown
# light: B1 light
# notes: as for B12
# B16: GpH7-A5/GpH7-B3 variant S267_01G/GpL16-k0 (antibody, human IgG1, kappa)
# heavy 1: not shown
# heavy 2: not shown
# light: B1 light
# notes: as for B12
# B17: GpH7-A5/GpH7-B3 variant L328_03V/GpL16-k0 (antibody, human IgG1, kappa)
# heavy 1: not shown
# heavy 2: not shown
# light: B1 light
# notes: as for B12
# B18: GpH7-A5/GpH7-B3 variant S267_07I/GpL16-k0 (antibody, human IgG1, kappa)
# heavy 1: not shown
# heavy 2: not shown
# light: B1 light
# notes: as for B12
# B19: GpH7-A5/GpH7-B3 variant T335_06M/GpL16-k0 (antibody, human IgG1, kappa)
# heavy 1: not shown
# heavy 2: not shown
# light: B1 light
# notes: as for B12
# B20: GpH7-A5/GpH7-B3 variant H268_13S/GpL16-k0 (antibody, human IgG1, kappa)
# heavy 1: not shown
# heavy 2: not shown
# light: B1 light
# notes: as for B12
# B21: GpH7-A5/GpH7-B3 variant T335_20W/GpL16-k0 (antibody, human IgG1, kappa)
# heavy 1: not shown
# heavy 2: not shown
# light: B1 light
# notes: as for B12
# B22: GpH7-A5/GpH7-B3 variant K326_16H/GpL16-k0 (antibody, human IgG1, kappa)
# heavy 1: not shown
# heavy 2: not shown
# light: B1 light
# notes: as for B12
# B23: GpH7-A5/GpH7-B3 variant T335_08L/GpL16-k0 (antibody, human IgG1, kappa)
# heavy 1: not shown
# heavy 2: not shown
# light: B1 light
# notes: as for B12
# B24: GpH7-A5/GpH7-B3 variant S239_01G/GpL16-k0 (antibody, human IgG1, kappa)
# heavy 1: not shown
# heavy 2: not shown
# light: B1 light
# notes: as for B12
# B25: GpH7-A5/GpH7-B3 variant P238_08L/GpL16-k0 (antibody, human IgG1, kappa)
# heavy 1: not shown
# heavy 2: not shown
# light: B1 light
# notes: as for B12
# B26: GpH7-A5/GpH7-B3 variant H268_09D/GpL16-k0 (antibody, human IgG1, kappa)
# heavy 1: not shown
# heavy 2: not shown
# light: B1 light
# notes: as for B12
# B27: GpH7-A5/GpH7-B3 variant L328_06M/GpL16-k0 (antibody, human IgG1, kappa)
# heavy 1: not shown
# heavy 2: not shown
# light: B1 light
# notes: as for B12
# Molecular target: T1, FcγRIIa R
# Test: SPR (Biacore), antibody captured via antigen peptide, FcγRIIa R as analyte; homodimerized antibody
# Procedure: (§1) Analysis of interaction between objective antibody and the FcγR was carried out using Biacore T100 (GE Healthcare). HBS-EP+ (GE Healthcare) was used as the running buffer, and the measurement temperature was set to 25° C. Chips produced by immobilizing the antigen peptide by the amine coupling method to a Series S Sencor Chip CM5 (GE Healthcare), or alternatively, chips produced by allowing preliminarily biotinylated antigen peptides to interact with and immobilize onto a Series S Sensor Chip SA (certified) (GE Healthcare) were used. Antibodies of interest were captured onto an antigen peptide-immobilized chip, and allowed to interact to each FcγR diluted with running buffer. To regenerate and repeatedly use the chip, the antibodies captured on the chip were washed off by reacting 10 mM glycine-HCl, pH 1.5.
row,Ho/Con_2aR,Binder
1,108 % of control (GpH7-B3/GpL16-k0 = 100),B1
2,107 % of control (GpH7-B3/GpL16-k0 = 100),B2
3,146 % of control (GpH7-B3/GpL16-k0 = 100),B3
4,107 % of control (GpH7-B3/GpL16-k0 = 100),B4
5,101 % of control (GpH7-B3/GpL16-k0 = 100),B5
6,113 % of control (GpH7-B3/GpL16-k0 = 100),B6
7,109 % of control (GpH7-B3/GpL16-k0 = 100),B7
8,100 % of control (GpH7-B3/GpL16-k0 = 100),B8
9,102 % of control (GpH7-B3/GpL16-k0 = 100),B9
10,102 % of control (GpH7-B3/GpL16-k0 = 100),B10
11,108 % of control (GpH7-B3/GpL16-k0 = 100),B11

# Molecular target: T1, FcγRIIa R
# Test: SPR (Biacore), antibody captured via antigen peptide, FcγRIIa R as analyte; heterodimerized antibody
# Procedure: as §1
row,He/Con_2aR,Binder
1,111 % of control (GpH7-A5/GpH7-B3/GpL16-k0 = 100),B12
2,137 % of control (GpH7-A5/GpH7-B3/GpL16-k0 = 100),B13
3,105 % of control (GpH7-A5/GpH7-B3/GpL16-k0 = 100),B14
4,110 % of control (GpH7-A5/GpH7-B3/GpL16-k0 = 100),B15
5,113 % of control (GpH7-A5/GpH7-B3/GpL16-k0 = 100),B16
6,116 % of control (GpH7-A5/GpH7-B3/GpL16-k0 = 100),B17
7,111 % of control (GpH7-A5/GpH7-B3/GpL16-k0 = 100),B18
8,105 % of control (GpH7-A5/GpH7-B3/GpL16-k0 = 100),B19
9,127 % of control (GpH7-A5/GpH7-B3/GpL16-k0 = 100),B20
10,109 % of control (GpH7-A5/GpH7-B3/GpL16-k0 = 100),B21
11,120 % of control (GpH7-A5/GpH7-B3/GpL16-k0 = 100),B22
12,108 % of control (GpH7-A5/GpH7-B3/GpL16-k0 = 100),B23
13,128 % of control (GpH7-A5/GpH7-B3/GpL16-k0 = 100),B24
14,140 % of control (GpH7-A5/GpH7-B3/GpL16-k0 = 100),B25
15,149 % of control (GpH7-A5/GpH7-B3/GpL16-k0 = 100),B26
16,115 % of control (GpH7-A5/GpH7-B3/GpL16-k0 = 100),B27
